1 protein from article PMC3811051 (Nature methods, 2013) can be followed below.

What is called stoichiometry N is a count of units in the complex or per binding partner.

This data set deals with the molecule itself. In words: SEC. (In general: In gel filtration, larger molecules generally elute earlier.)

B1: LanYFP, yellow fluorescent protein from Branchiostoma lanceolatum (natural protein, UniProt B1PNC0 1-219, looked up)
chain: MSLPATHELHIFGSFNGVDFDMVGRGTGNPNDGYEELNLKSTKGALQFSPWILVPQIGYGFHQYLPFPDGMSPFQAAMKDGSGYQVHRTMQFEDGASLTSNYRYTYEGSHIKGEFQVIGTGFPADGPVMTNSLTAADWCVTKMLYPNDKTIISTFDWTYTTGSGKRYQSTVRTNYTFAKPMAANILKNQPMFVFRKTELKHSKTELNFKEWQKAFTDVM
With B1, the “stoichiometry N” value was found to be 4.
